# Tests used:
# [1] = molecular target: Her2-Fc; experiment: flow cytometry of T cells with 0.5 µg 4D5.BBZ mRNA and 15 µg 8.6 mRNA; Her2-Fc + PE-anti-IgG-Fc; E1 without mRNA: 1.26
# [2] = molecular target: Her2-Fc; experiment: flow cytometry of T cells with 0.5 µg 4D5.BBZ mRNA and 15 µg 4.1 mRNA; Her2-Fc + PE-anti-IgG-Fc; E1 without mRNA: 1.26
# [3] = molecular target: Her2-Fc; experiment: flow cytometry of T cells with 0.5 µg 4D5.BBZ mRNA and 15 µg 4.3 mRNA; Her2-Fc + PE-anti-IgG-Fc; E1 without mRNA: 1.26
# [4] = molecular target: Her2-Fc; experiment: flow cytometry of T cells with 0.5 µg 4D5.BBZ mRNA and 15 µg 4.2 mRNA; Her2-Fc + PE-anti-IgG-Fc; E1 without mRNA: 1.26
# [5] = molecular target: Her2-Fc; experiment: flow cytometry of T cells with 0.5 µg 4D5.BBZ mRNA and 15 µg 4.8 mRNA; Her2-Fc + PE-anti-IgG-Fc; E1 without mRNA: 1.26
# [6] = molecular target: Her2-Fc; experiment: flow cytometry of T cells with 0.5 µg 4D5.BBZ mRNA and 15 µg 1412-4D11 mRNA; Her2-Fc + PE-anti-IgG-Fc; E1 without mRNA: 1.26
# [7] = molecular target: CD40-Fc (human) (UniProt P25942); experiment: flow cytometry of T cells electroporated with 0.5 µg 4D5.BBZ mRNA alone; CD40-Fc + PE-anti-IgG-Fc; E1 without mRNA: 0.27
# [8] = molecular target: Her2-Fc; experiment: flow cytometry of T cells with 0.5 µg 4D5.BBZ mRNA and 15 µg 4.5 mRNA; Her2-Fc + PE-anti-IgG-Fc; E1 without mRNA: 1.26
# [9] = molecular target: Her2-Fc; experiment: flow cytometry of T cells electroporated with 0.5 µg 4D5.BBZ mRNA alone; Her2-Fc + PE-anti-IgG-Fc; E1 without mRNA: 1.26
# [10] = molecular target: Her2-Fc; experiment: flow cytometry of T cells with 0.5 µg 4D5.BBZ mRNA and 5 µg A40C28 mRNA; Her2-Fc + PE-anti-IgG-Fc; E1 without mRNA: 1.26
# [11] = molecular target: Her2-Fc; experiment: flow cytometry of T cells with 0.5 µg 4D5.BBZ mRNA and 15 µg 4.6 mRNA; Her2-Fc + PE-anti-IgG-Fc; E1 without mRNA: 1.26
# [12] = molecular target: Her2-Fc; experiment: flow cytometry of T cells with 0.5 µg 4D5.BBZ mRNA and 15 µg 4.7 mRNA; Her2-Fc + PE-anti-IgG-Fc; E1 without mRNA: 1.26
# [13] = molecular target: Her2-Fc; experiment: flow cytometry of T cells with 0.5 µg 4D5.BBZ mRNA and 15 µg 4.4 mRNA; Her2-Fc + PE-anti-IgG-Fc; E1 without mRNA: 1.26
substance,measurement,setting,value
4D5.BBZ (scFv),% of cells in the positive gate,[1],86.1
same,% of cells in the positive gate,[2],89.6
same,% of cells in the positive gate,[3],91.4
same,% of cells in the positive gate,[4],88.8
same,% of cells in the positive gate,[5],81.6
same,% of cells in the positive gate,[6],18.5
same,% of cells in the positive gate,[7],0.67
same,% of cells in the positive gate,[8],85.5
same,% of cells in the positive gate,[9],94.9
same,% of cells in the positive gate,[10],94.6
same,% of cells in the positive gate,[11],87.9
same,% of cells in the positive gate,[12],82.6
same,% of cells in the positive gate,[13],91.1

# Reference: patent publication US20250381223A1
